Test results taken from publication PMC11091121, “The structural basis for 2′−5′/3′−5′-cGAMP synthesis by cGAS”.

What was measured:
WT-mcGAScat = WT-mcGAScat (mouse, UniProt Q8C6L5 147-507); test: crystal structure; 2'-dATP; FA: 5 nM FAM-dsDNA, as previously reported (reaction buffer likely 25 mM Tris-acetate pH 7.4, 125 mM KAc, 5 mM MgAc2, 1 mM TCEP, 5% glycerol, 25 C); crystals: 0.2 M ammonium acetate, 32% MPD, 0.1 M Bis-Tris pH 6.5, 4 C; settings: protein: recombinant; tags: none left (N-terminal 6xHis-MBP removed by TEV); chain copies: 2; blunt; self-complementary, 2 copies of the strand
Chain of WT-mcGAScat (Q8C6L5 147-507): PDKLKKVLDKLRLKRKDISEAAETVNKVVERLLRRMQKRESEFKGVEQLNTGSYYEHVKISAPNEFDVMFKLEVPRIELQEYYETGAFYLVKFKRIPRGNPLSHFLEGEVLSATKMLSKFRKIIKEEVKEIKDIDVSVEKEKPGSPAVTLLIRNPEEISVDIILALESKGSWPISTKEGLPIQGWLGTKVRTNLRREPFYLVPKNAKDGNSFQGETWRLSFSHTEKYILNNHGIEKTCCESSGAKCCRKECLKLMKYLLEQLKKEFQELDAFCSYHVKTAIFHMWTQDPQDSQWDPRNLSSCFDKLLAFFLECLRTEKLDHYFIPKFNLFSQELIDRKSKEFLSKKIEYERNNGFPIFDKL

QN-mcGAScat = QN-mcGAScat (mouse, UniProt Q8C6L5 147-507, E211Q;D213N); test: crystal structure; ATP, GTP, Mg2+; FA: 5 nM FAM-dsDNA, as previously reported (reaction buffer likely 25 mM Tris-acetate pH 7.4, 125 mM KAc, 5 mM MgAc2, 1 mM TCEP, 5% glycerol, 25 C); crystals: 0.2 M ammonium acetate, 32% MPD, 0.1 M Bis-Tris pH 6.5, 4 C; settings: protein: recombinant; tags: none left (N-terminal 6xHis-MBP removed by TEV); chain copies: 2; blunt; self-complementary, 2 copies of the strand
Chain of QN-mcGAScat (Q8C6L5 147-507 E211Q/D213N): as the sequence (Q8C6L5 147-507) above, with E65Q, D67N counted along it

B1: 18-bp palindromic dsDNA (dsDNA)
DNA 1: ATCTGTACATGTACAGAT
DNA 2: ATCTGTACATGTACAGAT
binding result (WT-mcGAScat): binds | binding result (QN-mcGAScat): binds
